The text below walks through data of patent publication US20180327752A1 (Stanford University, published 2018).

The target in one assay is FGFR1. Nature of the assay: Flow cytometry surface staining of HAP1 WT cells with the isotype control, SSC against FITC.
Another assay deals with c-MET (Homo sapiens) (UniProt P08581). Nature of the assay: Flow cytometry surface staining of HAP1 WT cells with the isotype control, SSC against PE.
Assay [1] deals with T1, AAV2 particles (adeno-associated virus serotype 2 capsid) (adeno-associated virus serotype 2, UniProt P03135 1-735).
T1 construct: The ELISA used AAV2 virus-like particles coated on the plate; SPR used AAV-2 particles as analyte; The infection assays used recombinant AAV2 vectors; also called AAV2 virus-like particles (VLPs); AAV2-GFP
T1 sequence (P03135 whole entry, the tested form may be a part): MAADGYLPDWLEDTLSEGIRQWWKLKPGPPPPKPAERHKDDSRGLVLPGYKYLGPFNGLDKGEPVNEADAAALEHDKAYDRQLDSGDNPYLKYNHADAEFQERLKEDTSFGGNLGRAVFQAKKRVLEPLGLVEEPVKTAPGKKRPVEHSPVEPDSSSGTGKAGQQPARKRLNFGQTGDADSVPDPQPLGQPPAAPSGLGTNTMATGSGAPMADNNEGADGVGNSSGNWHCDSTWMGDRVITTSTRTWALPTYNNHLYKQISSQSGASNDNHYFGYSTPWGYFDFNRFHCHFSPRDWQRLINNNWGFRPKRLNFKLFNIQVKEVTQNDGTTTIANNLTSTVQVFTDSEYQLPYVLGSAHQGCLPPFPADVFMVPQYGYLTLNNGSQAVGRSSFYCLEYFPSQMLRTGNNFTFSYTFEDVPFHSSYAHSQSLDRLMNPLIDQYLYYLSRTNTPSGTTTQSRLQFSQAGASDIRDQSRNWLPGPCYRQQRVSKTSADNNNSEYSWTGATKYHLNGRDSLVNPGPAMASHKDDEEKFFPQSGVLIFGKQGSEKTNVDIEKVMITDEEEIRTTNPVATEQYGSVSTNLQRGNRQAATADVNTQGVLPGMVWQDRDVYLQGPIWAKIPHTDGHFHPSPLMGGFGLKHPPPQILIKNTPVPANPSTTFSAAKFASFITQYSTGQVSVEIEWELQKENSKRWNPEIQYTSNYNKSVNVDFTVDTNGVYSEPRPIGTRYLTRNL
Nature of the assay: ELISA: plates coated with AAV2 virus-like particles, soluble AAVR (MBP-PKD1-5) detected with anti-MBP-HRP, A450.

The target of assay [2] is T1, AAV2 particles (adeno-associated virus …). Nature of the assay: cell-based or functional assay.
The target is the same in assay [3]. Nature of the assay: SPR (BIAcore X), His-tagged soluble AAVR immobilised on CM5 chip, AAV-2 particles as analyte, Langmuir 1:1 fit.
For assay [4] the target is unchanged. Nature of the assay: SPR (BIAcore X): His-tagged soluble AAVR immobilised at 4 nM ligand concentration, AAV-2 particles as analyte, Langmuir 1:1 fit.
Assay [5] has the same target. Nature of the assay: SPR (BIAcore X): His-tagged soluble AAVR immobilised at 2 nM ligand concentration, AAV-2 particles as analyte, Langmuir 1:1 fit.

On to isotype (FITC row) (antibody), for which the % of cells in the positive gate with FGFR1 amounted to 0.28%.

In the assay with c-MET (Homo sapiens), isotype (PE row) (antibody) registered a % of cells in the positive gate of 0.68%.

B1: soluble AAVR (E. coli-expressed recombinant fusion between maltose-binding protein and AAVR PKD domains 1-5) (receptor)
chain: VSAGESVQITLPKNEVQLNAYVLQEPPKGETYTYDWQLITHPRDYSGEMEGKHSQILKLSKLTPGLYEFKVIVEGQNAHGEGYVNVTVKPEPRKNRPPIAIVSPQFQEISLPTTSTVIDGSQSTDDDKIVQYHWEELKGPLREEKISEDTAILKLSKLVPGNYTFSLTVVDSDGATNSTTANLTVNKAVDYPPVANAGPNQVITLPQNSITLFGNQSTDDHGITSYEWSLSPSSKGKVVEMQGVRTPTLQLSAMQEGDYTYQLTVTDTIGQQATAQVTVIVQPENNKPPQADAGPDKELTLPVDSTTLDGSKSSDDQKIISYLWEKTQGPDGVQLENANSSVATVTGLQVGTYVFTLTVKDERNLQSQSSVNVIVKEEINKPPIAKITGNVVITLPTSTAELDGSKSSDDKGIVSYLWTRDEGSPAAGEVLNHSDHHPILFLSNLVEGTYTFHLKVTDAKGESDTDRTTVEVKPDPR
notes: Used in the ELISA on AAV2 VLPs and in the neutralization assay; also called rAAVR1-5; MBP-AAVR PKD 1-5
For B1, the half-maximal effective concentration (EC50 (read off the curve)) in assay [1] was about 100 nM. For the same molecule, the “IC50 (read off the curve)” value in assay [2] was about 20 nM.

B2: His-tagged soluble AAVR (His-tagged MBP fusion with AAVR PKD domains 1-5) (receptor)
chain: VSAGESVQITLPKNEVQLNAYVLQEPPKGETYTYDWQLITHPRDYSGEMEGKHSQILKLSKLTPGLYEFKVIVEGQNAHGEGYVNVTVKPEPRKNRPPIAIVSPQFQEISLPTTSTVIDGSQSTDDDKIVQYHWEELKGPLREEKISEDTAILKLSKLVPGNYTFSLTVVDSDGATNSTTANLTVNKAVDYPPVANAGPNQVITLPQNSITLFGNQSTDDHGITSYEWSLSPSSKGKVVEMQGVRTPTLQLSAMQEGDYTYQLTVTDTIGQQATAQVTVIVQPENNKPPQADAGPDKELTLPVDSTTLDGSKSSDDQKIISYLWEKTQGPDGVQLENANSSVATVTGLQVGTYVFTLTVKDERNLQSQSSVNVIVKEEINKPPIAKITGNVVITLPTSTAELDGSKSSDDKGIVSYLWTRDEGSPAAGEVLNHSDHHPILFLSNLVEGTYTFHLKVTDAKGESDTDRTTVEVKPDPR
notes: Construct immobilised on the CM5 chip for SPR; also called AAVR (SPR ligand); not shown: His tag
B2: the Kd in assay [3] was about 150 nM. For the same molecule, in assay [4], the affinity, expressed as Kd, was 150 nM; the koff is 0.0029 s⁻¹; the kon was 18000 M⁻¹ s⁻¹. Also, in assay [5], the Kd stood at 140 nM, the koff came out at 0.0023 s⁻¹ and the kon turned out to be 20000 M⁻¹ s⁻¹.
